Reference: patent publication US9657088B2, “Anti-HSV antibody” (priority 2009, dated 2017)

What was measured:
[1] = system: patient derived HSV-1 isolate resistant towards Acyclovir, Foscarnet and Cidovovir; test: Treatment of NOD/SCID mice infected with multi-resistant patient HSV-1 isolate; format: in vivo; details: for protection against lethal encephalitis: 15 mg/kg i.v. at 24 h, 40 h and 56 h post infection
Text: Mice receiving twice daily standard treatment with Acyclovir all died within 28 days.
Furthermore, the humanized mAb 2c-V1 also confers protection from viral dissemination and lethal encephalitis in the presence of an established peripheral HSV infection. […] In contrast, mice receiving Acyclovir all died (FIG. 12).

[2] = system: human DNA polymerase; details: background statement; cited from earlier work
[3] = system: HSV-1 laboratory strains and clinical isolates; test: Neutralization of HSV-1 laboratory strains and clinical isolates (FIG. 8); format: cell-based
Method: (§1) To determine the titer of mAb h2c-V1 for complete virus neutralization several antibody concentrations were incubated for 1 h at 37° C. with 100 TCID50 of HSV-1 or HSV-2 isolates and incubated for 3 days with Vero cells. MAb hu2c-V1 neutralizes HSV-1 laboratory strains HSV-1 F, HSV-1 324 hv, HSV-1 17 syn^+, HSV-1 TK^− completely at concentrations of 7.8-15.6 nM. HSV-1 clinical isolates are neutralized by mAb h2c-V1 similarly irrespective of their resistance profile. Furthermore, the same neutralization efficiency of mAb hu2c-V1 was shown for strain HSV-2 G and ACV-resistant HSV-2 isolates at concentrations of 31.3-62.5 nM.

[4] = target: T1, glycoprotein B on surface of HSV-1 F infected Vero cells (Human herpesvirus 1, UniProt P06436); test: Affinity constants (KD) by flow cytometry on HSV-1 F infected Vero cells; format: binding
T1 construct: expressing the gB-protein as membrane associated glycoprotein on the cell surface during the natural HSV replication cycle; endogenous in cells; host or cells: Vero cells infected with HSV-1 F (MOI 3); gB is made by the virus in the infected cell

[5] = system: HSV-2 G and ACV-resistant HSV-2 isolates; test: Neutralization of HSV-2 strain and isolates (FIG. 8); format: cell-based; details: 100 TCID50, 3 days
Method: as §1

[6] = target: T2, gB present on the surface of HSV-1 infected Vero cells (Human herpesvirus 1, UniProt P06436); test: Competition study with mAb 2c by flow cytometry; format: binding; details: increasing concentrations, then 100 nM mAb 2c
T2 construct: endogenous in cells; host or cells: Vero cells infected with HSV-1 (3 moi, 20 h)

[7] = system: HSV-1 F; test: Cell-to-cell spread assay in Vero cell monolayers; format: cell-based; details: 500 nM, 48 h
Method: Vero cells grown to confluency on glass cover slips in 24-weel tissue culture plates are infected for 4 h at 37° C. with a constant virus amount of 400 TCID50/well. One median tissue culture infective dose (1 TCID50) is the amount of a cytopathogenic agent, such as a virus, that will produce a cytopathic effect in 50% of the cell cultures inoculated. The virus inoculum is subsequently removed, the cells washed twice with PBS and further incubated for 2 days at 37° C. in 1 ml DMEM, 2% FCS, Pen/Strep containing an excess of either different anti-HSV antibodies or polyclonal anti-HSV control serum in order to prevent viral spreading via the supernatant Viral antigens of HSV-infected cells are detected with a fluorescence labelled polyclonal goat-anti-HSV-serum (BETHYL Labolatories, Montgomery, Tex. USA, Catalog No. A190-136F, Lot No. A190-136F-2).
Two days after infection spreading of the virus was detected with fluorescence labeled polyclonal goat-anti-HSV serum using a Leica DM IRE2 confocal microscope at 40-fold magnification.
For spreading within a host HSV uses two mechanisms: release of cell-free particles and direct, cell-to-cell spread. […] Viral antigens were detected by staining of HSV-1 infected cell monolayers with FITC-conjugated polyclonal goat-anti-HSV serum (BETHYL, Montgomery, Tex., USA) diluted 1:100 in blocking buffer. […]

[8] = system: HSV-1 F; test: Passive immunization of NOD/SCID mice 24 h before intravaginal HSV-1 challenge; format: in vivo; details: 24 h prior to infection
Method: Mice were infected intravaginally with 1×10^6 TCID50/20 μl of the neurovirulent HSV-1 strain F. Infected mice with symptoms of weight loss, vulvitis/vaginitis or neurological diseases were killed, and their organs examined for infectious virus by titration on Vero cell monolayers as described previously. Non-infected mice were killed at day 30. Animals per group n=7.
Animals per group n=7 for PBS, n=9 all other groups.
(§2) Anesthetized female nonobese diabetic/severe combined immunodeficient (NOD-SCID) mice (NOD.CB17-Prkdc^scid/J, Charles River Laboratories, Research Models and Services, Sulzfeld, Germany), 6-8 weeks of age, were challenged intravaginally with 20 μl inoculum of 1×10^6 TCID50 HSV-1 F per mouse. Skin glue (Epiglu, Meyer-Haake Medical Innovations, Wehrheim, Germany) was applied onto the vulva to prevent discharge of the virus inoculum. […] Mice were examined daily after viral inoculation for loss of weight, vulvitis/vaginitis (redness, mucopurulent discharge and signs of inflammation) and neurological disease. Mice displaying any of theses symptoms were sacrificed immediately. […] Mice were assessed for infection by determination of virus titers from vaginal irrigations obtained on days 1, 2, 4, 6 and 8 after infection and at the time of death using the endpoint dilution assay on Vero cells. Viral loads in organs (spleen, adrenal gland, lung heart, liver, kidney, spinal cord, and brain) of sacrificed mice were determined after homogenization of organs by titration on Vero cell monolayers as described elsewhere (41). Each test and control group contained 9-10 animals with detectable HSV-1 infection.
Natural killer (NK) cells accumulating at the site of HSV-2 infection in humans (28) are the early source of interferon-γ (45), which plays an essential role for the control of HSV infection (2, 45, 62).

[9] = system: HSV-1; test: Plaque-reduction assay with or without human complement; format: cell-based; details: 2 μg/ml, with or without 10% human complement
[10] = system: HSV-1 F; test: Post-exposure treatment of NOD/SCID mice with established HSV-1 infection; format: in vivo; details: 15 mg/kg i.v. at 24 h, 40 h and 56 h post infection
Method: Infected animals per group n=7.
Vaginal virus titers of antibody or control treated mice were determined from vaginal irrigations cultured on Vero cell monolayers. Error bars indicate standard deviation.
as §2

Molecule: Nc1nc(=O)c2ncn(COCCO)c2[nH]1 [Acyclovir, 2-Amino-9-(2-hydroxyethoxymethyl)-3H-purin-6-on, reference compound]
- outcome of infection ([1]; standard treatment with Acyclovir): all died
- time by which all mice died ([1]; twice daily standard treatment): ≤ 28 days
- factor by which human DNA polymerase is less susceptible than viral DNA polymerase [2]: 30-50

B1: h2c-V1: humanized mAb 2c variant, CDR grafting onto DP28/DPK13, no backmutations (antibody, V domains shown)
VH: QVTLKESGPALVKPTQTLTLTCTFSGFSLSTSGMSVGWIRQPPGKALEWLAHIWWNNDKYYKPALKSRLTISKDTSKNQVVLTMTNMDPVDTATYYCARIYYGYRPYAMDYWGQGTLVTVSS
VL: DIVMTQTPLSLPVTPGEPASISCRSSQSIVHSNGNTYLEWYLQKPGQSPQLLIYKVSNRFSGVPDRFSGSGSGTDFTLKISRVEAEDVGVYYCFQGSHVPWSFGQGTKVEIKR
- protection against lethal encephalitis ([1]; listed as mAb 2c-V1): prevented lethal encephalitis
- protection against lethal encephalitis ([1]; listed as mAb hu2c-V1): significantly protected against lethal encephalitis
- concentration for complete neutralization ([3]; HSV-1 F, HSV-1 324 hv, HSV-1 17 syn+, HSV-1 TK−, 100 TCID50, 3 days): 7.8 to 15.6 nM
- neutralization of patient isolates clinically resistant to ACV, ACV and PFA, or ACV, PFA and CDV ([3]; compared with non-resistant laboratory strains): with the same efficiency as non-resistant laboratory strains or clinical isolates with unknown resistance
- affinity in comparison to mAb 2c [4]: affinity comparable to the murine mAb 2c
- concentration for complete neutralization [5]: 31.3 to 62.5 nM
- competition with parental mAb 2c for binding [6]: compete with the parental mAb 2c for binding to gB
- inhibition of cell-to-cell spread [7]: as efficient as the parenteral mAb 2c
- protection against lethal encephalitis ([8]; 15 mg/kg i.v.): fully protected against lethal encephalitis
- survival ([8]; single i.v. dose of 5 mg/kg): prolongs the survival
- complement dependence of HSV neutralization [9]: neutralize HSV complement-independent
- protection from lethal outcome of established infection [10]: completely protected from the lethal outcome of infection
